The values below come from IntAct's records for PubMed 35512704.

First the molecules themselves.
B1: Speckle-type POZ protein (Homo sapiens), O43791 (parent)
chain: MSRVPSPPPPAEMSSGPVAESWCYTQIKVVKFSYMWTINNFSFCREEMGEVIKSSTFSSGANDKLKWCLRVNPKGLDEESKDYLSLYLLLVSCPKSEVRAKFKFSILNAKGEETKAMESQRAYRFVQGKDWGFKKFIRRDFLLDEANGLLPDDKLTLFCEVSVVQDSVNISGQNTMNMVKVPECRLADELGGLWENSRFTDCCLCVAGQEFQAHKAILAARSPVFSAMFEHEMEESKKNRVEINDVEPEVFKEMMCFIYTGKAPNLDKMADDLLAAADKYALERLKVMCEDALCSNLSVENAAEILILADLHSADQLKTQAVDFINYHASDVLETSGWKSMVVSHPHLVAEAYRSLASAQCPFLGPPRKRLKQS
partner: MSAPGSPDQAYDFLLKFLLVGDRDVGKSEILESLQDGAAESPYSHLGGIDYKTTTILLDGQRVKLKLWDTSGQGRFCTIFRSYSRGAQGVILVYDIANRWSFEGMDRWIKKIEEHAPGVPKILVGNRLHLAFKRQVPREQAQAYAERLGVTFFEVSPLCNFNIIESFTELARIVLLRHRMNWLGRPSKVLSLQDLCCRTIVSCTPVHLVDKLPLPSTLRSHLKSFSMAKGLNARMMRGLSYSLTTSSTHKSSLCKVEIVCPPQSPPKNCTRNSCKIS
B2: Speckle-type POZ protein (Homo sapiens), O43791 (parent)
chain: B1 chain
partner: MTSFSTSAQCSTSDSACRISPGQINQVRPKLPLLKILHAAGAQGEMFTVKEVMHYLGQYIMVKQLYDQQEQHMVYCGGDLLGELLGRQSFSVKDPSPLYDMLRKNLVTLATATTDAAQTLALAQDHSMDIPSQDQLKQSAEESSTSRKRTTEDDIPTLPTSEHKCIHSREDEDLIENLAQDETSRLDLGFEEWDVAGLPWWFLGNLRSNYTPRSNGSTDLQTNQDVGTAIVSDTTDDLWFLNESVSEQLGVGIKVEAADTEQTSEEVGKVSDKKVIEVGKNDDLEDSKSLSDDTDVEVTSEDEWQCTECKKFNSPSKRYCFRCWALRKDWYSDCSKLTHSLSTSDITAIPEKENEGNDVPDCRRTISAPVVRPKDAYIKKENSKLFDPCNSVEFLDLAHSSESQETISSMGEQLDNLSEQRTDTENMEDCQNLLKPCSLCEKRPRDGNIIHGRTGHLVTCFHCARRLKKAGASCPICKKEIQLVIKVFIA
B3: Speckle-type POZ protein (Homo sapiens), O43791 (parent)
chain: B1 chain
partner: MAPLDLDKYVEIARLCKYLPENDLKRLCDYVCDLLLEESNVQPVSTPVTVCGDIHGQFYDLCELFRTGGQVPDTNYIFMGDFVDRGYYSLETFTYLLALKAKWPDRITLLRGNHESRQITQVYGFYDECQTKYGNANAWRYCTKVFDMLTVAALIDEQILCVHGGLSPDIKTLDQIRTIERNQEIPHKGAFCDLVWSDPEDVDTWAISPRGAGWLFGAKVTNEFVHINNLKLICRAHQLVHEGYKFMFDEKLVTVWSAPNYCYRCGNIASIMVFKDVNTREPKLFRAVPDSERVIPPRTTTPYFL
B4: Speckle-type POZ protein (Homo sapiens), O43791 (parent)
chain: B1 chain
partner: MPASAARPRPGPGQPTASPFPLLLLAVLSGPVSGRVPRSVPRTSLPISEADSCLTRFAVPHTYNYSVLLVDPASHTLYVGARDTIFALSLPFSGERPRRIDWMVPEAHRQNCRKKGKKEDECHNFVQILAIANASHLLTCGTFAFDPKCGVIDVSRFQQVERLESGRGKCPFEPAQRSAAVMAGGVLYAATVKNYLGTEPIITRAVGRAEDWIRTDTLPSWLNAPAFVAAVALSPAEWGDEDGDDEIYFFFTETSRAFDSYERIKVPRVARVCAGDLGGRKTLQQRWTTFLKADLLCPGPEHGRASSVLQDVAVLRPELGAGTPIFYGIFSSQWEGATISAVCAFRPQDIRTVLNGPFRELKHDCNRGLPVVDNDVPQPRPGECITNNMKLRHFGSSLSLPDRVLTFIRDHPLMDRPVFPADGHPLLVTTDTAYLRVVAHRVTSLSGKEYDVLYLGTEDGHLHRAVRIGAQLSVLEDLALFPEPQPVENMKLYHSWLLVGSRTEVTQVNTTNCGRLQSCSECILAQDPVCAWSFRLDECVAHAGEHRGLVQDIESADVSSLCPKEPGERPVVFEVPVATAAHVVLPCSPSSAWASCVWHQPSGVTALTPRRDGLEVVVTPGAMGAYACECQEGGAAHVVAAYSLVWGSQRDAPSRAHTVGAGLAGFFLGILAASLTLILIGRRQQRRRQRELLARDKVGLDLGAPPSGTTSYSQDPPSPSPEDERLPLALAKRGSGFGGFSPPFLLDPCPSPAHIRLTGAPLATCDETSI
B5: Speckle-type POZ protein (Homo sapiens), O43791 (parent)
chain: B1 chain
partner: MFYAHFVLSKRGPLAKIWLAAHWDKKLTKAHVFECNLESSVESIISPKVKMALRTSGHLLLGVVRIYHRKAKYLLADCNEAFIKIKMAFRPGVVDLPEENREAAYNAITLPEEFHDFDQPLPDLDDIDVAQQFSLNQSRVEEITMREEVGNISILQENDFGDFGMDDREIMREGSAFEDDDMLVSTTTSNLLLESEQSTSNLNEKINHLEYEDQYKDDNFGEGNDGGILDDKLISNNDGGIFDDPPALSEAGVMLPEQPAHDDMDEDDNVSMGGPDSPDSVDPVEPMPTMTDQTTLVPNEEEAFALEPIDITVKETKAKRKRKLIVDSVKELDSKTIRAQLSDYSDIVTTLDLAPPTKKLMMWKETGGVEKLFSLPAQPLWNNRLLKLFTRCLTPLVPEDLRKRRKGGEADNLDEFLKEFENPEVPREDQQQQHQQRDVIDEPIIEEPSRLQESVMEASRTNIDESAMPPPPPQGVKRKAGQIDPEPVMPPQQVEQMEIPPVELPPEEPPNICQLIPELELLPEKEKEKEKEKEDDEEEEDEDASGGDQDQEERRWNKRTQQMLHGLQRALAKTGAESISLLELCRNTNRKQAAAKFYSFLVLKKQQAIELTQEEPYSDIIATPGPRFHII
B6: Speckle-type POZ protein (Homo sapiens), O43791 (parent)
chain: B1 chain
partner: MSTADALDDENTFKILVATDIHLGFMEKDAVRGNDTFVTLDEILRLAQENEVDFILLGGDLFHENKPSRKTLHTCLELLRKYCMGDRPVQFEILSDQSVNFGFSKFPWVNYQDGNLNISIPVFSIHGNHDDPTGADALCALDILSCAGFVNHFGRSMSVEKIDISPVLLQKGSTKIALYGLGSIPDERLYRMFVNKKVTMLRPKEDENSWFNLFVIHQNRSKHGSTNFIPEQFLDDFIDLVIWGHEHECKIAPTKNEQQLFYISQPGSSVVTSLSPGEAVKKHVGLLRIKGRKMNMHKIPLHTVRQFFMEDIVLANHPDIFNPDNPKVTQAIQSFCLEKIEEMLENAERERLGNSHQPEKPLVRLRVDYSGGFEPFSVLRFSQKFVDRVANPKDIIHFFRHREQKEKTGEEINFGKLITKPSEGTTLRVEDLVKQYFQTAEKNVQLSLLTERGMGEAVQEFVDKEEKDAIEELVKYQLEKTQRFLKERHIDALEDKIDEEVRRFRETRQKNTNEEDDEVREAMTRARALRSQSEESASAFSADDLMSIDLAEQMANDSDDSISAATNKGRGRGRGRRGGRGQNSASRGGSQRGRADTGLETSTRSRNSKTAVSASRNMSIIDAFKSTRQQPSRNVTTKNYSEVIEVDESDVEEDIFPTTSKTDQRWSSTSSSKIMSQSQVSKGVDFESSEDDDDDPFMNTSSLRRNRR
B7: Speckle-type POZ protein (Homo sapiens), O43791 (parent)
chain: B1 chain
partner: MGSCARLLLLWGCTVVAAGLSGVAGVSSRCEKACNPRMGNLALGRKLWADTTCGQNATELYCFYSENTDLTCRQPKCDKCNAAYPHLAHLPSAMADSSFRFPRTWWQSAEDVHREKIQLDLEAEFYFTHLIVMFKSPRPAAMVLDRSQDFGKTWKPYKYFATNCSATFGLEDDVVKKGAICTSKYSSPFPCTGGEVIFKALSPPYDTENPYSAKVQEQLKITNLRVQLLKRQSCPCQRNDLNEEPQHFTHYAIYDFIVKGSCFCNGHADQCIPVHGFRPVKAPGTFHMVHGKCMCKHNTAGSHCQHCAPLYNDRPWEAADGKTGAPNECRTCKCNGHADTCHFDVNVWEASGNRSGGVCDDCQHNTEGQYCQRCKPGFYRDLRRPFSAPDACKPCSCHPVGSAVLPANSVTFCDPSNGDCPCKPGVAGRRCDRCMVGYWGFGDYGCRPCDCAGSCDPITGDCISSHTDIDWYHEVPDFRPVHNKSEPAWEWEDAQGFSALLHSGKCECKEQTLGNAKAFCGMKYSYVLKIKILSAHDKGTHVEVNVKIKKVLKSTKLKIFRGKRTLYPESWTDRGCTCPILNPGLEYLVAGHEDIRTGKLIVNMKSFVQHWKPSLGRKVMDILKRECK

Variants of B1 are the subject of one assay. The note with it: with rb40a_human RAB40A.
Consider F133L, for which the “effect of a mutation on the interaction” value is listed as “with no effect”.

In a further assay the parent is B1. As to conditions: with rb40a_human RAB40A. This is another data set of the same source.
Regarding F133V, the “effect of a mutation on the interaction” value is on record as “with no effect”.

A further assay covers variants of B1. As to conditions: with rb40a_human RAB40A. The source holds these as a separate data set.
For the variant F102C, the “effect of a mutation on the interaction” value is on record as “with no effect”.

Variants of B2 are the subject of a further assay. As to conditions: with mdm4_human MDM4, O15151.
As for Y87C, the “effect of a mutation on the interaction” value is “with no effect”.

A further assay covers variants of B2. The note with it: with mdm4_human MDM4, O15151. This is another data set of the same source.
For the variant F102C, the “effect of a mutation on the interaction” value is given as “with no effect”.

In another assay the parent is B2. The note with it: with mdm4_human MDM4, O15151. This is another data set of the same source.
For F133V, the “effect of a mutation on the interaction” value is listed as “with no effect”.

Variants of B2 are the subject of a further assay. As to conditions: with mdm4_human MDM4, O15151. This is another data set of the same source.
For the variant F133L, the “effect of a mutation on the interaction” value is recorded as “with no effect”.

Variants of B3 are the subject of a further assay. The note with it: with ppp6_human PPP6C.
Turning to Y87C, the “effect of a mutation on the interaction” value is “with no effect”.

Variants of B3 are the subject of the next assay. As to conditions: with ppp6_human PPP6C. The source holds these as a separate data set.
Turning to F102C, the “effect of a mutation on the interaction” value is on record as “with no effect”.

In the next assay the parent is B3. The note with it: with ppp6_human PPP6C. This is another data set of the same source.
Regarding F133L, the “effect of a mutation on the interaction” value was “with no effect”.

Variants of B3 are the subject of a further assay. As to conditions: with ppp6_human PPP6C. This is another data set of the same source.
As to F133V, the “effect of a mutation on the interaction” value was “with no effect”.

The variants in the next assay derive from B4. As to conditions: with sem4f_human SEMA4F.
Take F102C: the “effect of a mutation on the interaction” value was “with no effect”.

Variants of B4 are the subject of another assay. The note with it: with sem4f_human SEMA4F. The source holds these as a separate data set.
On to F133L, for which the “effect of a mutation on the interaction” value is on record as “with no effect”.

In a further assay the parent is B4. The note with it: with sem4f_human SEMA4F. This is another data set of the same source.
Turning to F133V, the “effect of a mutation on the interaction” value is on record as “with no effect”.

Variants of B4 are the subject of the next assay. The note with it: with sem4f_human SEMA4F. The source holds these as a separate data set.
Take Y87C: the “effect of a mutation on the interaction” value was “with no effect”.

The next assay covers variants of B5. The note with it: with rad21_human RAD21, O60216.
As to Y87C, the “effect of a mutation on the interaction” value is given as “with no effect”.

In the next assay the parent is B5. As to conditions: with rad21_human RAD21, O60216. This is another data set of the same source.
As to F102C, the “effect of a mutation on the interaction” value is listed as “with no effect”.

Variants of B5 are the subject of the next assay. As to conditions: with rad21_human RAD21, O60216. The source holds these as a separate data set.
Turning to F133V, the “effect of a mutation on the interaction” value was “with no effect”.

In the next assay the parent is B5. The note with it: with rad21_human RAD21, O60216. The source holds these as a separate data set.
Consider F133L, for which the “effect of a mutation on the interaction” value is recorded as “with no effect”.

The variants in the next assay derive from B6. The note with it: with mre11_human MRE11, P49959.
For F102C, the “effect of a mutation on the interaction” value was “with no effect”.

The next assay covers variants of B6. The note with it: with mre11_human MRE11, P49959. The source holds these as a separate data set.
With Y87C, the “effect of a mutation on the interaction” value is recorded as “with no effect”.

Another assay covers variants of B6. As to conditions: with mre11_human MRE11, P49959. The source holds these as a separate data set.
For the variant F133V, the “effect of a mutation on the interaction” value is given as “with no effect”.

In the next assay the parent is B6. As to conditions: with mre11_human MRE11, P49959. This is another data set of the same source.
Turning to F133L, the “effect of a mutation on the interaction” value is given as “with no effect”.

In another assay the parent is B7. The note with it: with net4_human NTN4, Q9HB63.
On to Y87C, for which the “effect of a mutation on the interaction” value was “with no effect”.
